Experiment [1] deals with B7 antigen (human) (UniProt P33681). Kind of experiment: direct immunofluorescence flow cytometry, 5E1 cells, after preincubation with unlabeled (cold) BB-1. For orientation: In flow cytometry, cells or beads pass a laser one at a time.
For experiment [2] the target is unchanged. The experiment is described as follows: direct immunofluorescence flow cytometry, T51 cells.
Experiment [3] has the same target. The experiment is described as follows: direct immunofluorescence flow cytometry, Raji cells, after preincubation with unlabeled (cold) BB-1.
Experiment [4] shares this target. The experiment is described as follows: cell-based or functional assay.
For experiment [5] the target is unchanged. The experiment is described as follows: direct immunofluorescence flow cytometry, 5E1 B-lymphoblastoid cells, no unlabeled BB-1.
Experiment [6] has the same target. The experiment is described as follows: direct immunofluorescence flow cytometry, Jijoye Burkitt's lymphoma cells, no unlabeled BB-1.
For experiment [7] the target is unchanged. Kind of experiment: direct immunofluorescence flow cytometry, Raji Burkitt's lymphoma cells, no unlabeled BB-1.
The target is the same in experiment [8]. The experiment is described as follows: direct immunofluorescence flow cytometry, Jijoye cells.
Experiment [9] shares this target. Kind of experiment: direct immunofluorescence flow cytometry, Jijoye cells, after preincubation with unlabeled (cold) BB-1.
The target is the same in experiment [10]. The experiment is described as follows: direct immunofluorescence flow cytometry, 5E1 cells.
Experiment [11] shares this target. The experiment is described as follows: direct immunofluorescence flow cytometry, Daudi cells.
The target is the same in experiment [12]. The experiment is described as follows: direct immunofluorescence flow cytometry, Daudi cells, after preincubation with unlabeled (cold) BB-1.
For experiment [13] the target is unchanged. The experiment is described as follows: direct immunofluorescence flow cytometry, T51 cells, after preincubation with unlabeled (cold) BB-1.
The target is the same in experiment [14]. Kind of experiment: direct immunofluorescence flow cytometry, Raji cells.
For experiment [15] the target is unchanged. The experiment is described as follows: direct immunofluorescence flow cytometry, T51 B-lymphoblastoid cells, no unlabeled BB-1.
Experiment [16] shares this target. Kind of experiment: direct immunofluorescence flow cytometry, Daudi Burkitt's lymphoma cells, no unlabeled BB-1.
The next experiment concerns the target CD28 receptor (human) (UniProt P10747). The experiment is described as follows: cell-based or functional assay.

The source of these data is patent publication US7070776.

B7 antigen (human), sequence (P33681 35-288): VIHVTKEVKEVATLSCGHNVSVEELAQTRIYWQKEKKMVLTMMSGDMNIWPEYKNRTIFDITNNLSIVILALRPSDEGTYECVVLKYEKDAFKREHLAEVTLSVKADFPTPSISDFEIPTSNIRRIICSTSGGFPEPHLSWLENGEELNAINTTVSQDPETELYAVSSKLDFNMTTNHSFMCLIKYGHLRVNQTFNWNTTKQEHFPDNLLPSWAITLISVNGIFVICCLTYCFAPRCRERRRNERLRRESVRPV

Consider mAb BB-1 (anti-B7) (antibody), for which the mean fluorescence (linear units), FITC-BB-1 +COLD with B7 antigen (human) [1] is 2.4 linear units; in the experiment with B7 antigen (human) [3], 2.8 linear units; in the experiment with B7 antigen (human) [9], 2.8 linear units; with B7 antigen (human) [12] it was 2.8 linear units; with B7 antigen (human) [13], 3 linear units. The SPECIFIC BINDING (mean fluorescence, -cold minus +cold) with B7 antigen (human) [2] amounted to 13.4 linear units; with B7 antigen (human) [8] it was 15 linear units; in the experiment with B7 antigen (human) [10] it was 10.6 linear units; with B7 antigen (human) [11] it was 3.6 linear units; with B7 antigen (human) [14], 4.3 linear units. In the experiment with B7 antigen (human) [4], this substance displayed a [^3H]-T incorporation of PHA blasts stimulated with B7+ CHO (40:1), BB-1 at 10 µg/ml of 98300 cpm. The substance further returned a blocking of adhesion of Jijoye cells to CD28+ CHO cells, 10 mM EDTA in the experiment with B7 antigen (human) [4] of 60%. Moreover, the mean fluorescence (linear units), FITC-BB-1 -COLD in the experiment with B7 antigen (human) [5] was 13 linear units; with B7 antigen (human) [6], 17.8 linear units; with B7 antigen (human) [7], 7.1 linear units; with B7 antigen (human) [15], 16.4 linear units; with B7 antigen (human) [16], 6.4 linear units.

With “monoclonal antibody (mAb) 9.3 (anti-CD28)”, in the experiment with CD28 receptor (human), the [^3H]-T incorporation of PBL, +Anti-CD3, mAb 9.3 (immob.), Exp. 1 was found to be 137000 cpm; the [^3H]-T incorporation of PBL, +Anti-CD3, mAb 9.3 (soln.), Exp. 1 was 156000 cpm; the [^3H]-T incorporation of PBL, +Anti-CD3, mAb 9.3 (soln.), Exp. 2 is 75800 cpm; the [^3H]-T incorporation of PBL, -Anti-CD3, mAb 9.3 (immob.), Exp. 1 came out at 100 cpm. Also, in the experiment with CD28 receptor (human), the [^3H]-T incorporation of PBL, -Anti-CD3, mAb 9.3 (soln.), Exp. 1 was 300 cpm; the [^3H]-T incorporation of PBL, -Anti-CD3, mAb 9.3 (soln.), Exp. 2 is 400 cpm; the blocking of adhesion of B7 transfected COS cells to CD28+ CHO cells, EDTA omitted was 40%; the half-maximal inhibition of CD28-mediated adhesion (PM cells to CD28+ CHO) was found to be 10 nM. Also, in the experiment with CD28 receptor (human), the reduction of T51 cell adhesion to CD28+ CHO cells by mAb 9.3 alone (no EDTA) is 62% and the reduction of T51 cell adhesion to CD28+ CHO cells by mAb 9.3 plus EDTA came to 93%.

mAb 9.3 (Fab fragments) returned a [^3H]-T incorporation of PHA blasts stimulated with B7+ CHO (40:1), 9.3 Fab at 10 µg/ml in the experiment with CD28 receptor (human) of 132000 cpm.
